Source: paper PMC3988799
Numbering of substitutions follows the chain as printed. Names and notes keep the numbering of the source.

B1: α-factor receptor (Ste2): T7-Ste2-N25Q,N32Q (protein)
parent chain: MSDAAPSLSNLFYDPTYNPGQSTINYTSIYGNGSTITFDELQGLVNSTVTQAIMFGVRCGAAALTLIVMWMTSRSRKTPIFIINQVSLFLIILHSALYFKYLLSNYSSVTYALTGFPQFISRGDVHVYGATNIIQVLLVASIETSLVFQIKVIFTGDNFKRIGLMLTSISFTLGIATVTMYFVSAVKGMIVTYNDVSATQDKYFNASTILLASSINFMSFVLVVKLILAIRSRRFLGLKQFDSFHILLIMSCQSLLVPSIIFILAYSLKPNQGTDVLTTVATLLAVLSLPLSSMWATAANNASKTNTITSDFTTSTDRFYPGTLSSFQTDSINNDAKSSLRSRLYDLYPRRKETTSDKHSERTFVSETADDIEKNQFYQLPTPTSSKNTRIGPFADASYKEGEVEPVDMYTPDTAADEEARKFWTEDNNNL
B2: Ste2-T326-GFP (receptor)
chain: MSDAAPSLSNLFYDPTYNPGQSTINYTSIYGNGSTITFDELQGLVNSTVTQAIMFGVRCGAAALTLIVMWMTSRSRKTPIFIINQVSLFLIILHSALYFKYLLSNYSSVTYALTGFPQFISRGDVHVYGATNIIQVLLVASIETSLVFQIKVIFTGDNFKRIGLMLTSISFTLGIATVTMYFVSAVKGMIVTYNDVSATQDKYFNASTILLASSINFMSFVLVVKLILAIRSRRFLGLKQFDSFHILLIMSCQSLLVPSIIFILAYSLKPNQGTDVLTTVATLLAVLSLPLSSMWATAANNASKTNTITSDFTTSTDRFYPGTLSS

What was measured:
[1] = limited trypsin digestion of plasma membranes ± α-factor, western blot; conditions: glycan lost; control: epitope-tagged receptors with intact sites
[2] = target: T1, Ste2-F204S (S. cerevisiae) (UniProt D6VTK4)
T1 sequence: B1 parent chain with F204S

Binder	structure_or_conformation [1]	endocytosis complementation assay: percent of co-expressing cells with one or more GFP fluorescent foci after α-factor treatment (fluorescence microscopy) [2]
B1	no change	–
B2	–	> 80%
